Measured values from patent US20210155689A1 (SHANGHAI PHARMAEXPLORER, published 2021).
Changes are numbered by the printed parent chain.

T1: human LAG-3 on cells (HEK293-hLAG-3 stable cell line) (human, UniProt P18627 23-525)
T1 sequence: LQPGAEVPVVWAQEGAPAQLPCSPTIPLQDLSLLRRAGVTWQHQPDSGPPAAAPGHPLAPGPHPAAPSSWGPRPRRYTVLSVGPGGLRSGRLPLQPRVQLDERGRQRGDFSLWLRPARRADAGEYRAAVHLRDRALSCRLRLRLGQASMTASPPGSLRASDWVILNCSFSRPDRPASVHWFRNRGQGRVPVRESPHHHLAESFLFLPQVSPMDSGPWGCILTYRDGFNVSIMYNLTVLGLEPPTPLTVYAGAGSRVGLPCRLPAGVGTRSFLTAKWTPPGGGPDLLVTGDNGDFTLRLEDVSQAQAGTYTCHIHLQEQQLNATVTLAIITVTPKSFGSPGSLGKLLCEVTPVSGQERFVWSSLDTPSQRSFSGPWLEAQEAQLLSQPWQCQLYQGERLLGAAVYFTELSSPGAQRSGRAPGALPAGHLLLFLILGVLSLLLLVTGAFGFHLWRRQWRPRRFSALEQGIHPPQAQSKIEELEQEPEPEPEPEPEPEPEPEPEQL

T2: human LAG-3 protein with hFc tag (hLAG-3-hFc protein) (human, UniProt P18627 23-450)
T2 construct: also called immunogen 1; LAG-3 extracellular domain protein; not shown: human IgG Fc fragment (hFc) of the pCpC vector
T2 sequence: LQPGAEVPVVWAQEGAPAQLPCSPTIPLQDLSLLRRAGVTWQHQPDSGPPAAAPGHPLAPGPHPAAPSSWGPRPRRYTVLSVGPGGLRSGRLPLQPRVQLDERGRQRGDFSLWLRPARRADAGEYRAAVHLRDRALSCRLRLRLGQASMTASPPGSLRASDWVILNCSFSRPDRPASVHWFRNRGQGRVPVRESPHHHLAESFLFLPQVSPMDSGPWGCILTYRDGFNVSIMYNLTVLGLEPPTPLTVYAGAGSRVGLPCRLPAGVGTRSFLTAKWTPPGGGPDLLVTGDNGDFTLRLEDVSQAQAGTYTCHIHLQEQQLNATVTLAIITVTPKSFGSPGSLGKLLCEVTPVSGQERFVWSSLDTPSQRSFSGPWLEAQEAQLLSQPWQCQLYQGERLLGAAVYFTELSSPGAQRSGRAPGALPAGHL

T3: mouse LAG-3 protein with hFc tag (mLAG-3-hFc protein) (mouse; human, UniProt Q61790 24-442)
T3 construct: Made in HEK293 cells; also called mouse LAG-3 extracellular domain protein; not shown: human IgG Fc fragment (hFc) of the pCpC vector
T3 sequence: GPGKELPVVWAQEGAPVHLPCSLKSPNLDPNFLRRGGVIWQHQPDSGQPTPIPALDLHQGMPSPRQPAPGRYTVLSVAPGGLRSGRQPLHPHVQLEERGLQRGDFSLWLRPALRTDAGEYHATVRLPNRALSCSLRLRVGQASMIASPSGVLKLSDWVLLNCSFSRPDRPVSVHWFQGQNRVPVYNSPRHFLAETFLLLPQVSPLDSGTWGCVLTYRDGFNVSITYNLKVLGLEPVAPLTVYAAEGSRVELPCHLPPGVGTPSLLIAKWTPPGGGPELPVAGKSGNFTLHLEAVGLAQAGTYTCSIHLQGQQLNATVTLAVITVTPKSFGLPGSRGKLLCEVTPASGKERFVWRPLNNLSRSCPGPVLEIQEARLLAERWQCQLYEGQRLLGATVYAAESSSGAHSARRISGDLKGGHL

B1: 556F6B8 mouse-human chimeric antibody (antibody, V domains shown)
VH: RVQLKQSGPGLVQPSQSLSITCTVSGFSLIKYGVHWVRQSPGEGLEWLGVIWRGGITDYNAAFMSRLSITKDNSKSQVFFKMNSLQADDTAIYYCAKWDGPLAMDYWGQGTSVTVSS
VL: DIVMTQSHKFLSTSVGDRVSITCKASQDVGTTVAWYQQKPGQSPKLLIYWASTRHTGVPDRFTGSGSGTDFTLTISNVQSEDLADYFCQQYSSYPYTFGGGTKLEIK
notes: also called mAb123-556F6B8; 556F8B8
B2: 105F1E10 mouse-human chimeric antibody (antibody, V domains shown)
VH: EVQLQQSGPELVKPGASVKMSCRASGYTFTDFKMHWMKQSHGKSLEWIGYIAPNNGGTAYNQKFRGKATLTVNESSNTAYMELRSLTSEDSAVYYCVDWDDVDYWGQGTTLTVSS
VL: DIKMTQSPSSMYASLGERVTITCKASQDINSYLSWFQQKSGKSPKTLIYRANRLVDGVPSRFSGSGSGQDYSLTISSLEYEDMGIYYCLQYVEFPLTFGAGTKLELK
notes: also called mAb009-105F1E10
B3: 105F1E10 (LAG-3 mouse-human chimeric antibody) (antibody, V domains shown)
VH: B2 VH
VL: B2 VL
B4: 405B8H3 mouse-human chimeric antibody (antibody, V domains shown)
VH: QVQLQQSGAELVRPGASVTLSCKASGYTFTDYEMHWVKQTPVHGLEWIGATDPETGNSAYNQKFKGKAIMTADKSSSTAYMELRSLTSEDSAVYYCISTGWNDWGQGTSLTVSS
VL: B2 VL with S40P, N52D, V55L, E81G, V92D, L96Y, A100G, L106I
notes: also called mAb103-405B8H3

Experiments:
[1] = target: T1, human LAG-3 on cells (HEK293-hLAG-3 …); experiment: cell-based or functional assay
[2] = target: T2, human LAG-3 protein with hFc tag …; experiment: ELISA, hLAG-3-hFc coated; 0.0667 nM
Method: (§1) The plate was sealed with plastic film and incubated overnight at 4° C. The plate was washed 2 times with the plate washing solution (PBS+0.01% Tween20) on the next day, and added with the blocking solution (PBS+0.01% Tween20+1% BSA) and blocked at room temperature for 1-2 hours. The blocking solution was poured out, and the plate was added with 50-100 μl of the antibody sample to be tested to each well, incubated at 37° C. for 1-2 hours, and washed 2-3 times with a plate washing solution (PBS+0.01% Tween20). HRP (horseradish peroxidase) labeled secondary antibody was added, and the plate was incubated at 37° C. for 1-2 hours, and washed 2-3 times with a plate washing solution (PBS+0.01% Tween20). 100 μl of TMB substrate was added to each well. After incubated at room temperature for 15-30 minutes, the plate was added with 100 μl of stop solution (1.0N HCl) to each well.

[3] = target: T3, mouse LAG-3 protein with hFc tag …; experiment: ELISA, mLAG-3-hFc coated; 0.0007 nM
Method: as §1

Binder | IL-2 production, SEB-dependent PBMC stimulation test, 0.0032 ug/ml, N = 1 [1] | IL-2 production, SEB-dependent PBMC stimulation test, 0.0032 ug/ml, N = 2 [1] | IL-2 production, SEB-dependent PBMC stimulation test, 0.016 ug/ml, N = 1 [1] | IL-2 production, SEB-dependent PBMC stimulation test, 0.016 ug/ml, N = 2 [1] | IL-2 production, SEB-dependent PBMC stimulation test, 0.08 ug/ml, N = 1 [1] | IL-2 production, SEB-dependent PBMC stimulation test, 0.08 ug/ml, N = 2 [1] | IL-2 production, SEB-dependent PBMC stimulation test, 0.4 ug/ml, N = 1 [1] | IL-2 production, SEB-dependent PBMC stimulation test, 0.4 ug/ml, N = 2 [1] | IL-2 production, SEB-dependent PBMC stimulation test, 2 ug/ml, N = 1 [1] | IL-2 production, SEB-dependent PBMC stimulation test, 2 ug/ml, N = 2 [1] | IL-2 production, SEB-dependent PBMC stimulation test, 10 ug/ml, N = 1 [1] | IL-2 production, SEB-dependent PBMC stimulation test, 10 ug/ml, N = 2 [1] | OD450 [2] | OD450 [3]
B1 | 1780 pg/mL | 1910 pg/mL | 1430 pg/mL | 2010 pg/mL | 1780 pg/mL | 1980 pg/mL | 2570 pg/mL | 2810 pg/mL | 3800 pg/mL | 4010 pg/mL | 2610 pg/mL | 3260 pg/mL | – | –
B2 | 2340 pg/mL | 1840 pg/mL | 1720 pg/mL | 1520 pg/mL | 2130 pg/mL | 1770 pg/mL | 2550 pg/mL | 2570 pg/mL | 3970 pg/mL | 3660 pg/mL | 3740 pg/mL | 3650 pg/mL | – | –
B3 | – | – | – | – | – | – | – | – | – | – | – | – | 1.29 OD450 | 0.08 OD450
B4 | 2000 pg/mL | 1600 pg/mL | 1880 pg/mL | 1770 pg/mL | 1800 pg/mL | 1840 pg/mL | 2790 pg/mL | 3240 pg/mL | 2700 pg/mL | 2850 pg/mL | 3280 pg/mL | 3160 pg/mL | – | –
